Experimental data as given in paper PMC7864079, “Molecular basis for histone H3 “K4me3-K9me3/2” methylation pattern readout by Spindlin1” (The Journal of Biological Chemistry, 2021).

Target: T1, Spindlin1_50–262 (Homo sapiens, UniProt Q9Y657)
T1 construct: The Spindlin1_50–262 samples were dialyzed against the buffer; GST (N, cleaved yes); made in house; host or cells: Escherichia coli BL21 (DE3)
Experiment: Thermal shift assay (TSA), Spindlin1_50–262 mixed with histone H3 peptides
Assay type: binding
Settings: the row's label is the comparator peptide
Method: Recombinant proteins were overexpressed in Escherichia coli BL21 (DE3) strain. […] After cell lysis and centrifugation, the supernatant was loaded onto a GST affinity column and washed with lysis buffer. Then the bound proteins were subjected to on-column cleavage by PreScission Protease overnight. […] Purified peak fractions were concentrated to 25 mg/ml in 150 mM NaCl, 20 mM Tris, pH 8.0, aliquoted, and stored at −80°C for future use. The TSA was performed with a CFX96 real-time PCR instrument (Bio-Rad). […] All solutions were prepared in 25 µl of the same buffer (20 mM Hepes Na, pH 7.5, 150 mM NaCl) and incubated at 4°C for 1 h. During TSA assays, samples were heated from 25°C to 90°C at a rate of 0.5°C per minute. Protein denaturation progress was monitored by increased fluorescence signal of Sypro Orange, which captures the exposure of the protein hydrophobic core during thermal unfolding. Changes in the fluorescence signal were recorded and analyzed by the software CFX-Manager (Bio-Rad). When 50% of the protein is denatured, the folding and unfolding states of the protein are in dynamic equilibrium, and the corresponding temperature is the protein's melting temperature.

T1 sequence (Q9Y657 50-262): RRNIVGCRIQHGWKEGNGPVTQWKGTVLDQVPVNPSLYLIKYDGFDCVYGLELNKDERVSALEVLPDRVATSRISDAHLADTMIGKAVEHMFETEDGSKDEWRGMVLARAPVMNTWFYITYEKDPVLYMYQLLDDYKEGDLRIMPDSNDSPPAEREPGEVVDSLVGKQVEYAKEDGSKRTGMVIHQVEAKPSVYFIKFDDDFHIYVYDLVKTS

amount by which the Tm with H3_1–20 “K4me3-K9me3” ([…]) is greater than the Tm with this peptide | Substance
12.0 °C | H3_1–20 K9me3: synthetic histone H3 residues 1–20 peptide with K9me3
15.0 °C | unmodified H3_1–20: unmodified synthetic histone H3 residues 1–20 peptide
